Experiments:
[1] = biological target: T1, biotinylated human CD5-HIS (human, UniProt P06127 25-372, biotinylated); assay: BLI; KD on human CD5 divided by KD on cynomolgus CD5
T1 construct: Loaded onto streptavidin Octet pins; also called huCD5; SA-human CD5; not shown: HIS tag
T1 sequence (looked up): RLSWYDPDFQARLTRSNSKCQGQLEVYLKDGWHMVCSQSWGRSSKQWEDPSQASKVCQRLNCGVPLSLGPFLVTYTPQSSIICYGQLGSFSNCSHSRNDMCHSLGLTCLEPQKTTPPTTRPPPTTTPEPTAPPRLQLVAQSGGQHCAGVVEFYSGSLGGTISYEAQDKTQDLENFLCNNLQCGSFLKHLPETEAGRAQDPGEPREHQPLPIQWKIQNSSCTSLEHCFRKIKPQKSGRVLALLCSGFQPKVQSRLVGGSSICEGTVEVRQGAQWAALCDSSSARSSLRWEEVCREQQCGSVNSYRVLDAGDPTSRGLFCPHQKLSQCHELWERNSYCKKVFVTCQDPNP

[2] = biological target: T2, cynomolgus CD5 on transfected HEK293T cells (cynomolgus (Table 8B); rhesus macaque …); assay: flow cytometry, periplasmic extract on transfected HEK293T cells
T2 construct: whole, on cells; also called Cynomolgus CD5 Cells; rhesus macaque (Macaca mulatta) CD5

[3] = biological target: T3, human CD5 on transfected HEK293T cells (human, UniProt P06127 25-495); assay: as above
T3 construct: whole, on cells; also called huCD5; Human CD5 Cells
T3 sequence (looked up): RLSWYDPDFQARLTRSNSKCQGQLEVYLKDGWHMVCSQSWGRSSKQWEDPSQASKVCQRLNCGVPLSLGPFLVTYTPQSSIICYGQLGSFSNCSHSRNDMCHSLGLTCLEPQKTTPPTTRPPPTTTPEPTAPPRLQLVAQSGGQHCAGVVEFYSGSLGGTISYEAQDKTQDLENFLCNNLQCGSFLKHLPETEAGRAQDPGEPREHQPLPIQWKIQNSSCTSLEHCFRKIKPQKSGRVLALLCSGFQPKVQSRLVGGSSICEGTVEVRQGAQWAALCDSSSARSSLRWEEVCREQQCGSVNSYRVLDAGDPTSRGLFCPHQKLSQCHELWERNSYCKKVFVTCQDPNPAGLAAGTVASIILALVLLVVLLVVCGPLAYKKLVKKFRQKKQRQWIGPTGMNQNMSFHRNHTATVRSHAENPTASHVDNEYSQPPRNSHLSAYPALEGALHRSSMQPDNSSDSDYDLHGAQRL

[4] = biological target: T4, biotinylated cynomolgus CD5-HIS (cynomolgus); assay: BLI (Octet), biotinylated CD5-HIS on streptavidin pins, periplasmic extract, off-rate
T4 construct: Loaded onto streptavidin Octet pins; also called CynoCD5; SA-Cyno CD5

[5] = biological target: T1, biotinylated human CD5-HIS; assay: as above
[6] = biological target: T4, biotinylated cynomolgus CD5-HIS; assay: BLI (Octet), biotinylated CD5-HIS on streptavidin pins
[7] = biological target: T1, biotinylated human CD5-HIS; assay: as above

Binder | Hu/Cyno KD [1] | percent of cells showing binding [2] [%] | percent of cells showing binding [3] [%] | koff [4] [s⁻¹] | koff [5] [s⁻¹] | Kd [6] [nM] | koff [6] [s⁻¹] | kon [6] [M⁻¹ s⁻¹] | Kd [7] [nM] | koff [7] [s⁻¹] | kon [7] [M⁻¹ s⁻¹]
ABTx322 (VHH, VHH in periplasmic extract of the phage display clone; also called clone 660; not shown: c-myc tag of the phagemid construct (detected with anti-c-myc 9E10)) VHH: QLQLVESGGGLVQPGGSLRLSCAASGSDFLVDATTWFRQAPGNQREFVAIMDIGGVTEYADSVKGRFTISRDHTKNTVYLQMNSLKVEDTAVYYCNTRGLWGQGTLVTVSS | 0.9 | 82.3 | 70.1 | 0.0028 | 0.000331 | 1.1 | 0.00011 | 97000 | 1 | 0.0001 | 95000
ABTx318 (VHH, VHH in periplasmic extract of the phage display clone; also called clone 333; not shown: c-myc tag of the phagemid construct (detected with anti-c-myc 9E10)) VHH: QVQLQESGGGSVQAGGSLRLSCAASGRAFSAYAMGWFRQAPGKEREFVAAINWNGDTALRWNGFATRYADSVKGRFTISRVIAKNTVNLQMNSLKPEDTAVYYCAADTVVSGSYYLAARAEDYEYWGQGTQVTVSS | 1 | 67.1 | 84.9 | 0.0546 | 0.0138 | 2.4 | 0.00022 | 91000 | 2.5 | 0.00016 | 65000
ABTx316 (VHH, VHH in periplasmic extract of the phage display clone; also called clone 525; not shown: c-myc tag of the phagemid construct (detected with anti-c-myc 9E10)) VHH: QVQLVESGGGLVQAGGSLRLSCAASGGTVSSYAMGWFRQAPGKEREFVAVISWSGGRTYYADSVKGRFTISRDNAKNTVNLQMNSLKPEDTAVYYCAADPWTSDSDYERLTMYDYWGQGTQVTVSS | 0.9 | 81.7 | 85.8 | 0.0343 | 0.0054 | 1.6 | 0.00021 | 130000 | 1.4 | 0.00015 | 110000
ABTx321 (VHH, VHH in periplasmic extract of the phage display clone; also called clone 1043; not shown: c-myc tag of the phagemid construct (detected with anti-c-myc 9E10)) VHH: QLQLVESGGGLVQPGESLRLSCVVSGDIFSFVGWGWYRQAPGKQREVVAQISTGGLTNYADSVKGRFAISRDNAKRTVYLQMNSLKFEDTAVYYCNVPGHPWGQGTQVTVSS | 0.6 | 87.7 | 84.9 | 0.0136 | 0.0077 | 0.37 | 8.8e-05 | 240000 | 0.23 | 5.2e-05 | 220000
ABTx328 (VHH, VHH in periplasmic extract of the phage display clone; also called clone 1050; not shown: c-myc tag of the phagemid construct (detected with anti-c-myc 9E10)) VHH: QVQLVESGGGLVQPGESLRLSCVVSGDIFSFIGWGWYRQAPGKQRELVAQINTGGLTDYADSVKGRFTISRDNAKRTVYLQMNSLKFEDTAVYYCNFPGHSWGQGTQVTVSS | 0.4 | 40.7 | 45.4 | 6.34e-05 | 7.04e-05 | 0.93 | 0.00018 | 190000 | 0.36 | 9.2e-05 | 260000
ABTx325 (VHH, VHH in periplasmic extract of the phage display clone; also called clone 420; not shown: c-myc tag of the phagemid construct (detected with anti-c-myc 9E10)) VHH: QVQLVESGGGLVQPGGSLRLSCAASGSDASTNNMAWYRQAPGKEREFVALIRTGGSTHVADSMKGRFTISRENAKNTVYLQMNSLKPEDTAVYYCVIWTGSPGALSDYWGQGTQVTVSS | 0.8 | 80 | 77.4 | 0.0143 | 0.0027 | 1.8 | 0.00013 | 68000 | 1.5 | 0.00013 | 90000
ABTx323 (VHH, VHH in periplasmic extract of the phage display clone; also called clone 155; not shown: c-myc tag of the phagemid construct (detected with anti-c-myc 9E10)) VHH: QVQLQESGGGLVQAGGSLRLSCATSGITSSINVIGWYRQAPGKQRELVALVNSGGQTHYADSVKGRFTISRDNAKNTVFLQMNSLKPEDTAEYYCHGRYGIDNYWGEGTQVTVSS | 0.9 | 54.6 | 64.1 | 0.000347 | 0.000138 | 1.3 | 0.00012 | 89000 | 1.2 | 0.00011 | 93000
ABTx326 (VHH, VHH in periplasmic extract of the phage display clone; also called clone 199; not shown: c-myc tag of the phagemid construct (detected with anti-c-myc 9E10)) VHH: QVQLVESGGGLVQPGGSLRLSCAASGRTFINYAAGWFRQAPGKEREFVARISRSGGRTDYADSVKGRFTISRDNAKSTVYLQMNSLRPEDTAVYYCAEATVWEFTDGADQYDYWGQGTQVTVSS | 0.9 | 58.4 | 41.6 | 0.00415 | 0.000825 | 2.2 | 0.00015 | 68000 | 2 | 0.00015 | 74000
ABTx320 (VHH, VHH in periplasmic extract of the phage display clone; also called clone 157; not shown: c-myc tag of the phagemid construct (detected with anti-c-myc 9E10)) VHH: QVQLVESGGGLVQAGGSLRLSCAASGPAFSSSGMGWFRQAPGKAREFVASMDWTGGSTYYGDSVKGRFTVSRDNAKMTVHLQMNSLRPEDTAVYYCARGTSGVAAVNLRGFFSWGPGTQVTVSS | 1.1 | 77.7 | 80.3 | 0.000757 | 0.00137 | 2.6 | 0.0002 | 76000 | 2.8 | 0.00019 | 69000
ABTx324 (VHH, VHH in periplasmic extract of the phage display clone; also called clone 550; not shown: c-myc tag of the phagemid construct (detected with anti-c-myc 9E10)) VHH: QVQLVESGGGLVQPGGSVRLSCATSGSIFSTNVMGWYRQAPGKEREFVALIRGGGSTHYADSVKGRFIISRENAKTTVYLQMNGLKPEDTAVYYCVIWLGSPGAMSDYWGQGTQVTVSS | 0.7 | 73.2 | 73.3 | 0.0177 | 0.00271 | 2.3 | 0.00016 | 71000 | 1.7 | 0.00017 | 99000
ABTx319 (VHH, VHH in periplasmic extract of the phage display clone; also called clone 917; not shown: c-myc tag of the phagemid construct (detected with anti-c-myc 9E10)) VHH: QVQLVESGGGLVQPGGSLRLSCAASGFTFSMYSMSWVRQAPGKRLEWVSSISTGARDTAYADSVKGRFTISRDNADNTLYLHMNNLKPEDTAVYYCANGDLRYGPDGYDYRGQGTQVTVSS | 0.8 | 62.6 | 74.8 | 0.0531 | 0.0116 | 2.2 | 0.0002 | 94000 | 1.8 | 0.00013 | 72000
